Laboratory results from publication PMC8355310, “Using cryo-EM to understand antimycobacterial resistance in the catalase-peroxidase (KatG) from Mycobacterium tuberculosis” (Structure(London, England:1993), 2021).
Where a chain is given by its changes, count along the chain named. In names and notes the source's numbering stands.

B1: wild-type catalase-peroxidase KatG from Mycobacterium tuberculosis (enzyme)
chain: MPEQHPPITETTTGAASNGCPVVGHMKYPVEGGGNQDWWPNRLNLKVLHQNPAVADPMGAAFDYAAEVATIDVDALTRDIEEVMTTSQPWWPADYGHYGPLFIRMAWHAAGTYRIHDGRGGAGGGMQRFAPLNSWPDNASLDKARRLLWPVKKKYGKKLSWADLIVFAGNCALESMGFKTFGFGFGRVDQWEPDEVYWGKEATWLGDERYSGKRDLENPLAAVQMGLIYVNPEGPNGNPDPMAAAVDIRETFRRMAMNDVETAALIVGGHTFGKTHGAGPADLVGPEPEAAPLEQMGLGWKSSYGTGTGKDAITSGIEVVWTNTPTKWDNSFLEILYGYEWELTKSPAGAWQYTAKDGAGAGTIPDPFGGPGRSPTMLATDLSLRVDPIYERITRRWLEHPEELADEFAKAWYKLIHRDMGPVARYLGPLVPKQTLLWQDPVPAVSHDLVGEAEIASLKSQIRASGLTVSQLVSTAWAAASSFRGSDKRGGANGGRIRLQPQVGWEVNDPDGDLRKVIRTLEEIQESFNSAAPGNIKVSFADLVVLGGCAAIEKAAKAAGHNITVPFTPGRTDASQEQTDVESFAVLEPKADGFRNYLGKGNPLPAEYMLLDKANLLTLSAPEMTVLVGGLRVLGANYKRLPLGVFTEASESLTNDFFVNLLDMGITWEPSPADDGTYQGKDGSGKVKWTGSRVDLVFGSNSELRALVEVYGADDAQPKFVQDFVAAWDKVMNLDRFDVR
modifications: covalent linkage between Trp107, Tyr229 and Met255 (MYW catalytic triad); b-type heme bound in both protomers
notes: also called WT KatG; KatG^INH (with INH added); not shown: His-tag, N-terminal, cleaved
B2: KatG T275P variant from Mycobacterium tuberculosis (enzyme)
chain: B1 chain with T275P
notes: Homodimer (C2 symmetry imposed); no ordered heme modelled in either protomer; also called T275P KatG; not shown: His-tag, N-terminal, cleaved
B3: KatG W107R variant from Mycobacterium tuberculosis (enzyme)
chain: B1 chain with W107R
notes: also called W107R KatG; not shown: His-tag, N-terminal, cleaved

Molecular target: the molecule itself
Experiment: cryo-EM structure

Row | Protein | binding result
1 | B1 | binds
2 | B2 | binds
3 | B3 | binds
